In patent publication US20200157236A1 (CELLDEX THERAPEUTICS, published 2020) one finds Kd data, which are given here for 23 molecules.

Changes are numbered by the printed parent chain.

To fix the notation:
B1: Ab426 (antibody, V domains shown)
VH: EVQLVQSGAEVKKPGTSVKLSCKASGYTFTSYWMHWVRQARGQRLEWIGYIKPSSGYTKYAQKFQERVTLTADKSTSTAYMELSSLRSEDTAVYYCARDYYGSSSWFAYWGQGTLVTVSS
VL: EIVMTQSPATLSTSPGERATLSCRASQSVSSNLAWYQQKPGQAPRALIYSASYRYSGVPARFSGSGSGTDFTLTISSVEPEDFAVYYCQQYNSYPYMYTFGQGTKLEIK
notes: humanized
B2: Ab406 (antibody, V domains shown)
VH: B1 VH with T16A, R41P, R44G, F64L, E66G, S84R, E89D
VL: B1 VL with P8Q, L11M, P15V, R24K, S28N, S30G, S31T, L33V, A43S, R45K
notes: humanized
B3: Ab446 (antibody, V domains shown)
VH: B1 VH with T16S, T30S, R38K, R41P, R44G, E66G
VL: EIVMTQSQATMSTSVGERATLSCKASQNVGTNVAWYQQKPGQSPKALIYGASTRATGVPARFSGSGSGTDFTLTISSVEPEDFAVYYCQQYNSYPYMYTFGQGTKLEIK
notes: humanized
B4: Ab430 (antibody, V domains shown)
VH: B1 VH with T16A, R41P, R44G, F64L, E66G, S84R, E89D
VL: B1 VL
notes: humanized
B5: Ab442 (antibody, V domains shown)
VH: B1 VH with T16A, R41P, R44G, F64L, E66G, S84R, E89D
VL: B3 VL
notes: humanized
B6: Ab438 (antibody, V domains shown)
VH: B1 VH
VL: B3 VL
notes: humanized
B7: Ab436 (antibody, V domains shown)
VH: B1 VH with A9P, A61N, Q65K, E66D, V68A
VL: B3 VL
notes: humanized
B8: Ab352 (antibody, V domains shown)
VH: B1 VH with A9P, A61N, Q65K, E66D, V68A
VL: EIVMTQSPAFLSVTPGEKVTITCKASQNVGTNVAWYQQKPDQAPKALIYSASYRYSGVPSRFSGSGSGTDFTLTISSLEAEDAATYYCQQYNSYPYMYTFGQGTKLEIK
notes: humanized
B9: Ab434 (antibody, V domains shown)
VH: B1 VH with T16S, T30S, R38K, R41P, R44G, E66G
VL: B1 VL
notes: humanized
B10: Ab435 (antibody, V domains shown)
VH: B1 VH with E1Q, K12A, R38K, R41P, R44G, A61N, Q65K, E66D, R67K
VL: B3 VL
notes: humanized
B11: Ab355 (antibody, V domains shown)
VH: QVQLVQSGAEVAKPGASVKLSCKASGYTFTSYWMHWVKQAPGQGLEWIGYIKPSSGYTKYNQKFKDKATLTADKSTSTAYMELRSLRSDDTAVYYCARDYYGSSSWFAYWGQGTLVTVSS
VL: B8 VL
notes: humanized
B12: Ab439 (antibody, V domains shown)
VH: B11 VH
VL: B3 VL
notes: humanized
B13: Ab325 (antibody, V domains shown)
VH: QVQLQQSGAELVKPGASVKISCKASGYAFSSYWMNWVKQRPGKGLEWIGQIYPGDGDTNYNGKFKGKATLTADKSSSTAYMQLSSLTSEDSAVYFCARWYYGSYYAMDYWGQGTSVTVSS
VL: DIQMTQTTSSLSASLGDRVTISCRASQDISNYLNWYQQKPDGTVKLLIYYTSRLHSGVPSRFSGSGSGTDYSLTISNLEQEDIATYFCQQGNTLPRTFGGGTKLEIKR
notes: rodent hybridoma mAb
B14: Ab330 (antibody, V domains shown)
VH: EVQVVETGGGVVQPGKSLEITCATSGLTFSTAWMYWVRQSSDRRLEWIARIKDKSNKFASDYVESVRGRFTISRDDSRSSVYLQMNNLKEEDTATYYCTTSYGYAWGQGVMVTVSS
VL: DIQMTQSPSSMSASLGDRVTITCQASQDIGNYLIWFQQKPGKSPRPLIYYATNLANGVPSRFSGSRSGSEYSLTITSLESEDMADYHCLQYKQHLTFGSGTKLEIER
notes: rodent hybridoma mAb
B15: Ab320 (antibody, V domains shown)
VH: QVQLQQSGAELVKPGASVKISCKASGYAFSSYWMNWVKQRPGKGLEWIGQIYPGDGDTNYNGKFKGKATLTADKSSSTAYMQLSSLTSEDSAVYFCASYYYGSKAYWGQGTLVTVSA
VL: DIQMTQSPASLAASVGETVTITCRASENIYYSLAWYQQKQGKSPQLLIYNANSLEDGVPSRFSGSGSGTQYSMKINSMQPEDTATYFCKQAYDVPFTFGSGTKLEIKR
notes: rodent hybridoma mAb
B16: Ab323 (antibody, V domains shown)
VH: QVQLQQSGAELVKPGASVKISCKTSGYTFSNYWMNWVKQRPGKGLEWIGQIFPGDADANYNGKFKGKATLTADKSSSAAFMQLSSLTSEDSAVYFCARFSYDGAFAYWGQGTLVTVS
VL: DIVMTQSHKFMSTSVGDRVSITCKASQDVSTAVAWYQQKPGQSPKPLIYWASTRHTGVPDRFTGSGSGTDYTLTISSVQTEDLALYYCQQHYSTPRTFGGGTKLEIKR
notes: rodent hybridoma mAb
B17: Ab329 (antibody, V domains shown)
VH: QVQLKESGPGLVKPSATLSLTCTVSGFSLTSYHVCWIRQTPGKGLEWMGVIWGDGRTTYNPPLKSRLSISRDTSKSQVFLKMSSLKTEDTATYYCARATMTGHGDAWGQGASVTVSS
VL: DIQMTQSPASLSASLEEIVTITCQASQDIDNYLSWYQQKPGKSPHLLIHSATSLADGVPSRFSGGRSGTQFSLKINRLQVEDTGIYYCLQHYSGWTFGGGTKLELKR
notes: rodent hybridoma mAb
B18: Ab327 (antibody, V domains shown)
VH: DVKLVESGEGLVKPGGSLKLSCAASGFTFSSYAMSWVRQTPEKRLEWVTYISSGGDYIYYADTVKGRFTISRDNARNTLYLQMSSLKSEDTAMYYCTRERIWLRRFFDVWGTGTTVTVSS
VL: DIVMTQSQKFMSTSVGDRVSITCKASQNVGTAVAWYQLKPGQSPKLLIYSASNRFTGVPDRFTGSGSGTDFTLTISNMQSEDLADYFCQQYSSYPLTFGSGTKLEIKR
notes: rodent hybridoma mAb
B19: Ab332 (antibody, V domains shown)
VH: EVQLQQSGPELVKPGTSVKISCKASGYTFTDYYMNWMKQSHGKSLEWIGDINPNNGVTSYNQKFKGKATLTVDKSSSTAYMELRSLTSEDSAVYYCAREDYGSNYFDYWGQGTTLTVSS
VL: DIVLTQSPASLAVSLGQRATISCKASQSVDYDGDSYMNWYQQKPGQPPKLLIYAASNLESGIPARLSGSGSGTDFTLNIHPVEEEDAATYYCQQSNEDPPTFGGGTKLEIRR
notes: rodent hybridoma mAb
B20: Ab328 (antibody, V domains shown)
VH: QVQLQQSGAELAKPGASVKLSCKASGYTFTSYWMHWVKQRPGQGLEWIGYINPSSGYTKYNQKFKDKATLTADKSSSTAYMQLSSLTFEDSAVYYCARDYYGSSSWFAYWGQGTLVTVSA
VL: DIVMTQSQKFMSTSVGDRVSVTCKASQNVGTNVAWYQQKPGHSPKALIYSASYRYSGVPDRFTGSGSGTDFTLTISNVQSEDLAEYFCQRYNSYPYMFTFGGGTKLEIKR
notes: rodent hybridoma mAb
B21: Ab400 (antibody, V domains shown)
VH: B1 VH with A9P, A61N, Q65K, E66D, V68A
VL: B3 VL with G50S, T53Y, A55Y, T56S
notes: humanized
B22: Ab403 (antibody, V domains shown)
VH: B11 VH
VL: B3 VL with G50S, T53Y, A55Y, T56S
notes: humanized
B23: Ab402 (antibody, V domains shown)
VH: B1 VH
VL: B3 VL with G50S, T53Y, A55Y, T56S
notes: humanized

Chain of rat ALK, purified (rALK) (P97793 other isoform, or with tags, fused parts or gaps limits assumed): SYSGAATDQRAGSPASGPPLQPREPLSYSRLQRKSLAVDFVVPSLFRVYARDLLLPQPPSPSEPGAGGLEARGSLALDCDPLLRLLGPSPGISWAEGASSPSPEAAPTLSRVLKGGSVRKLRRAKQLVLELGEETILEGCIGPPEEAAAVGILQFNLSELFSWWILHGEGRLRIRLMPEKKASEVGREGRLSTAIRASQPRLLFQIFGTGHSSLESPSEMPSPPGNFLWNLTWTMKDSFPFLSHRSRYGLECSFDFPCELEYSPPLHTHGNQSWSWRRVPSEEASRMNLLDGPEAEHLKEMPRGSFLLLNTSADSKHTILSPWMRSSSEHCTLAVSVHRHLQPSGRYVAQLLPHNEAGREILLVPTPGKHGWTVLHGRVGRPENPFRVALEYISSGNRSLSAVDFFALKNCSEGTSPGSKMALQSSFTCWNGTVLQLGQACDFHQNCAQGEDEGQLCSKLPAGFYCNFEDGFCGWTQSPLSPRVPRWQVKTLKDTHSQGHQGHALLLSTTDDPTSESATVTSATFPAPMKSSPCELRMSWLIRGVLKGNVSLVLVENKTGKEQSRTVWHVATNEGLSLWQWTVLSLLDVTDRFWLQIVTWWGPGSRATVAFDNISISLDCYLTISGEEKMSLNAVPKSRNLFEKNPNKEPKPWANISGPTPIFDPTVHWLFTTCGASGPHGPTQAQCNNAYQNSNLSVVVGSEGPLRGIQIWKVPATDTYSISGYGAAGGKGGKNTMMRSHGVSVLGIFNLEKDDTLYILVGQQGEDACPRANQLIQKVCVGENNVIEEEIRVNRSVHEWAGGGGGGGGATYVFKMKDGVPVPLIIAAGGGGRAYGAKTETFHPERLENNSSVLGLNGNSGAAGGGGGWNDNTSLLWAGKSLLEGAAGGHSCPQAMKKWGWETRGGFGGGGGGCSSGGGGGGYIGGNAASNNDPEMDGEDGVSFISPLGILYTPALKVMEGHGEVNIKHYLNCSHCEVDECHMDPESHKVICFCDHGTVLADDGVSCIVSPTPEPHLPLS
Chain of human ALK, purified (hALK) (Q9UM73 other isoform, or with tags, fused parts or gaps limits assumed): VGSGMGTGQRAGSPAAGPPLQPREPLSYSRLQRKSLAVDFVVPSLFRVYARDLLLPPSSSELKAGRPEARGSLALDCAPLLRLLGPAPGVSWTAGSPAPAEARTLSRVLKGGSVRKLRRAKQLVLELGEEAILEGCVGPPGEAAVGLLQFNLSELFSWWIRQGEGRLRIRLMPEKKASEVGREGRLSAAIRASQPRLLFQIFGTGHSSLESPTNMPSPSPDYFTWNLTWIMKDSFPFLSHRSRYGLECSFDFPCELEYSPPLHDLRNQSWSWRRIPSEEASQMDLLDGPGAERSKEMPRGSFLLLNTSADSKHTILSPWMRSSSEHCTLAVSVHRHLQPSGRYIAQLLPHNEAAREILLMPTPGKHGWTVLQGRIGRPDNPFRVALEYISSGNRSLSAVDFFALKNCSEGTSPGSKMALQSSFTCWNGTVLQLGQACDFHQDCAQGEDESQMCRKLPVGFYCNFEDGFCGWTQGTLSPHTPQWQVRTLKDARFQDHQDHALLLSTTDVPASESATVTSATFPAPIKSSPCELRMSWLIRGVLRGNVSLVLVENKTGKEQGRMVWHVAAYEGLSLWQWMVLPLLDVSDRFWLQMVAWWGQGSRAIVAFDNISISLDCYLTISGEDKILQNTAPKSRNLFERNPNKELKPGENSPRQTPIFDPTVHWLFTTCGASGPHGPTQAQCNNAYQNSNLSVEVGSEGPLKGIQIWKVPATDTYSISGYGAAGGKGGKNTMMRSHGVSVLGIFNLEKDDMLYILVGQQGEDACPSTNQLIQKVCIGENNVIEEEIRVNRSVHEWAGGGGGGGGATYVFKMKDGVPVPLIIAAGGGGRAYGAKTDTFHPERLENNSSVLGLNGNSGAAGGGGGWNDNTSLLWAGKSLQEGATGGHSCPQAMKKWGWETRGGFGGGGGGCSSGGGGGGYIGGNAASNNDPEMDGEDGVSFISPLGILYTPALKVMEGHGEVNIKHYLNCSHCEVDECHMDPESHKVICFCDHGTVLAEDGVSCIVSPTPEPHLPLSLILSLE

In the first assay the target is T1, purified ALK protein (BLitz, Table 20) (Homo sapiens (Human), UniProt Q9UM73 19-1038, limits assumed).
T1 construct: also called purified ALK proteins
T1 sequence (Q9UM73 19-1038 limits assumed): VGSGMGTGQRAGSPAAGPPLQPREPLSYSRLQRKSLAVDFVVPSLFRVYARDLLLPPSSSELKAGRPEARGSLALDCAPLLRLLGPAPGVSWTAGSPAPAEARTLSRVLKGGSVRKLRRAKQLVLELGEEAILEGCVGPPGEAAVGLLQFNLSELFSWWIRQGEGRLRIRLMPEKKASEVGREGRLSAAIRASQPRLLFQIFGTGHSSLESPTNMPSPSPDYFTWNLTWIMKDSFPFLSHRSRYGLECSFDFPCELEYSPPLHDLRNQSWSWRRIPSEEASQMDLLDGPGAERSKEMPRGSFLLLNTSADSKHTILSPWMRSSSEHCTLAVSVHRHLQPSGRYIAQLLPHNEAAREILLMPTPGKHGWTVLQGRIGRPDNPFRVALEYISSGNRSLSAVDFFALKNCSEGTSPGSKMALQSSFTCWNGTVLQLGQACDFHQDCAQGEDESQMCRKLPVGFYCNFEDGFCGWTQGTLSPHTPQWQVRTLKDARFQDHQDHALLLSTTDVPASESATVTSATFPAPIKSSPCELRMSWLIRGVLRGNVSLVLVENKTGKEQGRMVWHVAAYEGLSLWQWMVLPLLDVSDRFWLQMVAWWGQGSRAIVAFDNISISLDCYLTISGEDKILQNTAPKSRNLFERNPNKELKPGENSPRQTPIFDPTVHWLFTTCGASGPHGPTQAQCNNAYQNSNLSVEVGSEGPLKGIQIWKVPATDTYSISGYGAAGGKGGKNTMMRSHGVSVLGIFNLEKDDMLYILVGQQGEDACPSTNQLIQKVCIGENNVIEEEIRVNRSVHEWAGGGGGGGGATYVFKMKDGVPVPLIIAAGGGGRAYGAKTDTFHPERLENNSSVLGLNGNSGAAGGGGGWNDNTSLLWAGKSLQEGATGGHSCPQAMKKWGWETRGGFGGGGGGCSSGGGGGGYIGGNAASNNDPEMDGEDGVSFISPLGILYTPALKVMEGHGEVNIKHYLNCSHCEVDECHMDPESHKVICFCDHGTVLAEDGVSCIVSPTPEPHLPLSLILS
Kind of assay: BLI (BLitz), mAb on Protein A tip, purified ALK in solution. In a few lines: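 Humanized anti-ALK mAbs loaded at 0.5 mg/mL on Protein A tips; after stable baseline, purified ALK protein at 70 μg/mL added. Kinetic traces fit to a single binding site model to give monovalent KD.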
The term Kd denotes the constant that tells how readily two partners part at equilibrium. For the molecule B1, the Kd was 868 nM.

On to B2, for which the Kd is 110 nM.

With B3, the affinity, expressed as Kd, was 393 nM.

Molecule B4 returned a Kd of 211 nM.

For B5, binding was put at a Kd of 219 nM.

In turn, B6 gave a Kd of 310 nM.

For the molecule B7, the affinity, expressed as Kd, was 120 nM.

In turn, B8 yielded a Kd of 77.2 nM.

On to B9, for which the Kd was found to be 329 nM.

In turn, B10 returned a Kd of 317 nM.

B11 yielded a Kd of 86.5 nM.

B12 registered a Kd of 138 nM.

A further assay deals with T2, human ALK on the surface of NB1 cells (human, UniProt Q9UM73 21-1620).
T2 construct: ALK of NB1 cells; also called cell surface hALK; NB1 (human)
T2 sequence (Q9UM73 21-1620): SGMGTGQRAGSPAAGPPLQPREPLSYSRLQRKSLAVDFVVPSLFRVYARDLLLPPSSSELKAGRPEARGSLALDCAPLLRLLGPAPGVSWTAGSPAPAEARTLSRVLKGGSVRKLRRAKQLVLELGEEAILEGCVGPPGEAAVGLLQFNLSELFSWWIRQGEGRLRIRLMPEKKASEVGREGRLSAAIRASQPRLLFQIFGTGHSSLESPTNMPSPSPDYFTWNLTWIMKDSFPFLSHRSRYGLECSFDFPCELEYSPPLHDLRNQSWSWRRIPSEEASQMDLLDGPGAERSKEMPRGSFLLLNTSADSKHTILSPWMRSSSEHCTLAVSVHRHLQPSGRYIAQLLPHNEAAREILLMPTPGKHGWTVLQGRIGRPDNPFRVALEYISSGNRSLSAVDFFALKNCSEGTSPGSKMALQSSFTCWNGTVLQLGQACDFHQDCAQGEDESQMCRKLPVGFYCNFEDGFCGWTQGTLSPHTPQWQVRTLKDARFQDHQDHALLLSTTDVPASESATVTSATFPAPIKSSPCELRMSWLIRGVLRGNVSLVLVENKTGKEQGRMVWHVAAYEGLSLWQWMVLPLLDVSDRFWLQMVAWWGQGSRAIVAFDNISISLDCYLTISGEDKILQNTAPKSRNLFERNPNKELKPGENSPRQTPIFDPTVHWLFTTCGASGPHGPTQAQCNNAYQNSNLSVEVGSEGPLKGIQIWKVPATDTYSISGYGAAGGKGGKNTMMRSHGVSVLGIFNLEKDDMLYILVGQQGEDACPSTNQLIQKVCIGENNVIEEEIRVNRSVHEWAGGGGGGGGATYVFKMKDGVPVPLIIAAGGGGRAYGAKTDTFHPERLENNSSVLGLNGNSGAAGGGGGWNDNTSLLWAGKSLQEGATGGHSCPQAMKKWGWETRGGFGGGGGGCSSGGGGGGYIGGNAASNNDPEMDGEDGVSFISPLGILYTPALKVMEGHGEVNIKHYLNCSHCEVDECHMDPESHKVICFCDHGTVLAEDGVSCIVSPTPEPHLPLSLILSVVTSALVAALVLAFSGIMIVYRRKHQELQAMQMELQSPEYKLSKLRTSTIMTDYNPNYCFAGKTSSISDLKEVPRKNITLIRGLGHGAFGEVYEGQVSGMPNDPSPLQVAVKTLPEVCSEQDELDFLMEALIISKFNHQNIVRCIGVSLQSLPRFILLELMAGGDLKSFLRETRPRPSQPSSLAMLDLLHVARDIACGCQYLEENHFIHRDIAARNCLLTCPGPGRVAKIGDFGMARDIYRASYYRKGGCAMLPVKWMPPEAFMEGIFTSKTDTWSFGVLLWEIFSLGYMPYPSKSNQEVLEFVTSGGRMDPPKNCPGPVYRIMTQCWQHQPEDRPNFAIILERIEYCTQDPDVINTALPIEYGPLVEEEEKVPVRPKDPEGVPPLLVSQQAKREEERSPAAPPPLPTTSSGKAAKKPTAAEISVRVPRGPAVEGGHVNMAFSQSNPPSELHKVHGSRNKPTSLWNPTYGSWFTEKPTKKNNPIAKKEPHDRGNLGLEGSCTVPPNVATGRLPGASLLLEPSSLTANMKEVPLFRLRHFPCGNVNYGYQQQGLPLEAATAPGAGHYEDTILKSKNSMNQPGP
Kind of assay: flow cytometry titration on NB1 cells, steady state. The protocol: KD was determined by flow cytometry. Titration of each antibody on NB1 cells for 2-4 hours at 4° C. was followed by incubation with a fluorescently-labeled secondary antibody. The normalized mean fluorescent intensity […] shown as “% Max binding” was plotted as a function of antibody concentration.
Flow cytometry was utilized to measure the affinity at steady state (KD) with which different ALK antibodies bind to ALK on the surface of NB1 cells (FIG. 3). Titration of each antibody on NB1 cells for 2-4 hours at 4° C. was followed by incubation with a fluorescently-labeled secondary antibody. The normalized mean fluorescent intensity (MFI) shown as “% Max binding” was plotted as a function of antibody concentration. The data were fit to a one site binding isotherm using GraphPad Prism, from which affinity values were derived.
The molecule B13 had a Kd of 0.1 nM.

For B14, binding was put at a Kd of 3.13 nM.

B15 registered a Kd of 0.35 nM.

With B16, the Kd turned out to be 0.08 nM.

As to B17, binding was put at a Kd of 0.34 nM.

On to B18, for which the Kd is 0.4 nM.

B19 registered a Kd of 1.55 nM.

The molecule B20 gave a Kd of 0.5 nM.

Another assay addresses human ALK, purified (hALK) (human, UniProt Q9UM73 19-1038, limits assumed). Kind of assay: BLI (BLitz), estimated monovalent affinity, single dose kinetics. On the procedure:
(§1) Kinetic measurements of the monovalent affinity of the 96 humanized ALK antibody variants (Ab351-Ab446) were collected. Affinity ranking was performed using a BLitz® System (ForteBio, Menlo Park, Calif.). Humanized anti-ALK antibodies were immobilized at 0.5 mg/mL using Protein A tips. Once baseline stability was ensured, purified ALK proteins at 70 μg/mL were added. The resulting kinetic data were fit to a single binding site equation, from which the quoted monovalent KD values were derived.
(§2) KD values for both NB1 (human) cells and Neuro2a (mouse) cells were also determined.
For the molecule B8, the Kd was 105 nM.

As for B11, the Kd is 103 nM.

The next assay has as its target rat ALK, purified (rALK) (rat, UniProt P97793 19-1038 (mouse entry), limits assumed). The description is as above. The protocol:
as §1, §2
In the case of B8, the Kd is 24 nM.

Turning to B21, the Kd was 18 nM.

For the molecule B22, the Kd is 22 nM.

Regarding B11, the Kd is 31 nM.

As for B23, the Kd is 24 nM.

The target of another assay is mouse ALK, purified (mALK) (mouse, UniProt P97793 19-1042). Described as above. The protocol:
as §1, §2
As for B8, the Kd was 205 nM.

On to B11, for which the Kd was 150 nM.
